Experiment: label from the status in PepcDB records

Sequence: MHLETNMAGHSIPHFQNDGGHSVIEIGVKEFMCTGASVPFDHPHIFIDMGDDNEKVCSYCSTLYRYNPSLKAEQTNPPGCVFHVKAALEHHHHHH
- protein production: not failed

Sequence: MKNELICYKQMPVWTKDNLPQMFQEKHNTKVGTWGKLTVLKGKLKFYELTENGDVIAEHIFTPESHIPFVEPQAWHRVEALSDDLECTLGFYCKKEDYFSKKYNTTAIHGDVVDAAKIISPCKVLDLGCGQGRNSLYLSLLGYDVTSWDHNENSIAFLNETKEKENLNISTALYDINAANIQENYDFIVSTVVFMFLNRERVPSIIKNMKEHTNVGGYNLIVAAMSTDDVPCPLPFSFTFAENELKEYYKDWEFLEYNENMGELHKTDENGNRIKMKFATMLARKK
- protein production: not failed

Sequence: MGHHHHHHSHMGKITFYEDRAFQGRSYETTTDCPNLQPYFSRCNSIRVESGCWMLYERPNYQGQQYLLRRGEYPDYQQWMGLSDSIRSCCLIPQTVSHRLRLYEREDHKGLMMELSEDCPSIQDRFHLSEIRSLHVLEGCWVLYELPNYRGRQYLLRPQEYRRCQDWGAMDAKAGSLRRVVDLY
- protein production: not failed

Sequence: MQFTDFSLDQRLLQSLKHMGIATPTAIQEQALPIALAGKDLMASSKTGSGKTLAFLLPALQRVISTRALSKRDPRVLILLPTRELAHQVYSQLRLLVANTQYKAISVLGGENFNDQAKALAKEPHFIVATPGRIADHLEQKNLFLNGLELLILDEADRMLDLGFAPQLKAINEAADHKRRQTLMFSATLDHSEINEIAAALLKNPLHVAIGTAHAEHQDISQRIYLCDHLDHKEALLSRLLSDESHKQVIIFTATRADTERLAAKLSAQGFATAALSGELKQAARNQIMDQFARGQQQILVTTDVASRGLDLLNVSLVINFDMPKFAEEYVHRIGRTGRAGAKGDAISLVGPKDWDSFKKVQLFLRKTFEISVIKGLEAKFTGLKDKPKSVATKGVVKANTKGKSKPKPNVVKAAPSRDKRFITGVDVGDAPMRKKPKAQLLQESDDEI
- protein production: failed

Sequence: MLAMKLGIVGLGGWVTGAHIPALTDLGIKVDYCADIDEKRVKDLSQKTGCKGYLDYKEMLRNENPDLVLVAVPHSLHAIIALDAINNDANVYVEKPMATSFQEALTLVEASRKRNKILVVGHENRFNPAMLIAKKLIRGGEVGKIYHMRGFYIRQRGIPTSPTFIKKDLAKGGAVFDIGTHIIDLLLFLSDFPTPKSVTGKTYNAFSEDKTKFSAYPSPNLPNFKVEVEDFGSAFLKLGDEISAYVEVSWASYIKENKMEVVILGDNGGIHIDNGVLNFMRNIEDELFISSPLTQQKGSVYREVWRTVMESISKGFPEYPLCSAEQGAIGVAILESIYKSALEGREVKIDIPQWFLKQFQPRALEHHHHHH
- protein production: failed

Sequence: MSLNIKEASEKSGVSADTIRYYERIGLIPPIHRNESGVRKFGAEDLRWILFTRQMRRAGLSIEALIDYLALFREGEHTLEARAELLKKQRIELKNRIDVMQEALDRLDFKIDNYDTHLIPAQEELKDFNVERSNEGHHHHHH
- protein production: not failed

Sequence: MVRVVRHSRGTCNRGLYEVRELARNRTLQQWGVEDSAELYGIRNWGAGYFDVAQNGDVVVYPFGHNRGPAVSIPEIIGGMRERGYDMPVLLRIENILDSQITSLHTSFRNAIGSLGYKGEYRGIFPIKVNQQQQVVEKIAQFGSHYHHGLEVGSKAELIAAVSQLRDREACLVCNGYKDEEFIDLGLHAVRLGFMCIFVLEMPGELDLILERGEALGVKPIIGVRAKLSVKAGGHWTDSGGERSTFGLTTSQIVDVVDRLKEKGMLDCFKLLHYHLGSQVPNIRDIRAAVMEACRIYAGLVQEGAAMGFLDLGGGLAVDYDGSHTNFVSSRNYTLDEYCADIVEAVMTTLDEQNIPHPHIVTESGRATVAYYSMLLFNILDVSRVEIGNLPDALPEDTPEPVRNMREVLAGMTLRNLQECYNDALYYRDAVRQLFLTGQVTLRQRTLSERLFWAIMKRIAQEKQKLKHVPKDLAEIDVALADIYYGNFSVFQSLPDSWAIDQLFPVMPVHRLQELPSRQGILSDITCDSDGRIDHFIDPQGMKGTLDLHPLRDGEEYYLGVFLVGAYQETLGDLHNLLGDTNVVSVRVHEDGTYEFVREIRGDSVADILSYVEYDPRRIYEDIRELAERAVREGRITASDRFRVMQAYEDGLRGYTYFERLEHHHHHH
- protein production: failed

Sequence: MSNVCIVYSSTHHGNTEKVLNKIKEKFPETVLIKAGDFNPDDFNRYEAIGFASGIFYFKFAKPVDKLFEQALVGSVQKLFFIYTAGAVNAGFEKTLRKKTEQSGKICMGIFGCKGFDTFGPLKLIGGLNKNSPNEKDFKNAIDFFEKNIINALEHHHHHH
- protein production: not failed

Sequence: MTEAMIRKKPGMASVKDMPLLQDGPPPGGFAPVRYARRISNTGPSAMAIFLTVSGAFAWGMYQVGQGNKIRRALKEEKYAARRAILPILQAEEDERFVSEWKKYLEYEADVMKDVPGWKVGENVYNSGRWMPPATGELRPDVW
- protein production: failed
